Tests used:
[1] = target: RBD domain of the SARS-CoV-2 spike protein (Acro Biosystems SPD-C52H3), His tag (SARS-CoV-2, UniProt P0DTC2 319-537)
[2] = target: SARS-CoV-2 spike protein receptor binding domain (isolated RBD) (SARS-CoV-2, UniProt P0DTC2 319-541); assay: SPR (Biacore 8K), IgG1 captured via anti-hFc, RBD as analyte, 1:1 fit
[3] = target: SARS-CoV-2 spike protein receptor binding domain (RBD) (SARS-CoV-2, UniProt P0DTC2 319-541); assay: HT-SPR (Carterra LSA); IgG captured by anti-human Fc, RBD as analyte, 1:1 fit
[4] = target: Receptor binding domain (Neil King, University of Washington) (SARS-CoV-2, UniProt P0DTC2 328-531); assay: SPR (Biacore 8K), antibody captured by anti-hFc, RBD as analyte

B1: IMPI-052 (antibody, V domains shown)
VH: EVQLVESGGGLIQPGGSLRLSCAASGVTVSSNYMNWVRQAPGKGLEGVSVIYSGGTTYYADSVKGRFTISRDNSKNTLYLQMNSLRAEDTAVYYCARDTVVYGMDVWGQGTTVTVSS
VL: DIQLTQSPSFLSASVGDRVTITCWASQGISSYLAWYQQKPGKAPKLLIYTASTLQSGVPSRFSGSGSGTEFTLTISSLQPEDFATYYCQQLNSYPLTFGGGTKVEIK
For B1, which “HTRF deltaF” value [1] is on record?
Its value is 229 deltaF.

B2: IMPI-052 (antibody, V domains shown)
VH: B1 VH
VL: B1 VL
With B2 as the binder, how does the Kd [2] read?
The Kd was 13.2 nM.

B3: IMPI-052 (antibody, V domains shown)
VH: B1 VH
VL: B1 VL
Which Kd [3] does the source give for B3 here?
Its Kd is 24.1 nM.

B4: IMPI-013 (antibody, V domains shown)
VH: EVQLVESGGGLVQPGRSLRLSCAASGFTFDDYAMHWVRQTPGKGLEWVSGISWNSGSIGYADSVKGRFTISRDNAKNSLYLQMNSLRAEDTALYYCTKDLGLGIGFYYGLDVWGQGTTVTVSS
VL: AIQMTQSPSSLSTSVGDRVTITCRASQGIRNDLGWYQLKPGKAPKLLIYDASTLQSGVPSRFSGSGSGTDFTLTISSLEPEDLATYYCLHHYTYPWTFGHGTKVELK
notes: also called IMP-013
Does B4 bind [4]?
Result: no binding (tested: up to 100 nM analyte)

B5: IMPI-063 (antibody, V domains shown)
VH: EVQLVESGGGVVRPGGSLRLSCAASGFTFDDYGMSWVRQAPGKGLEWVSGIYWNGGSTGYADSVKGRFTISRDNAKNSLYLQMNSLRAEDMALYYCARGVGATDYWGQGTLVTVSS
VL: EIVLTQSPGTLSLSSGERATLACRASESVRGSFLAWYQQKPGQAPRLLIYGASRRATGIPDRFSGSGSGTDFTLTISRLEPEDFAVYYCQQYGNSPMCSFGQGTKLEIK
Does B5 bind [4]?
Result: no binding (tested: up to 100 nM analyte)

— patent US20250026813A1 (published 2025)
